Key:
Assay in all cases: EMSA; 2 nM probe; 10 mM TCEP; EMSA: 50 mM Tris-HCl pH 7.5, 50 mM NaCl, 2 mM MgCl2, 0.01% Tween 20, 5% glycerol, 1 h at room temperature; proteins reduced with 10 mM TCEP unless stated; 10% native PAGE
Settings in all cases: protein: recombinant; tags: N-terminal His6 removed by TEV (leaves SM); blunt
Etv1 R391A = Etv1 R391A (human, UniProt P50549 326-429, R391A)
Etv1 Y329S-P427S = Etv1 Y329S-P427S (human, UniProt P50549 326-429, Y329S;P427S)
Etv1 R394A = Etv1 R394A (human, UniProt P50549 326-429, R394A)
Etv1 D387A = Etv1 D387A (human, UniProt P50549 326-429, D387A)
Etv1 Y396F = Etv1 Y396F (human, UniProt P50549 326-429, Y396F)
[1] = target: Etv1 Ets domain WT (reduced monomer) (human, UniProt P50549 326-429)
Etv1 Ets domain WT (reduced monomer), sequence (P50549 326-429): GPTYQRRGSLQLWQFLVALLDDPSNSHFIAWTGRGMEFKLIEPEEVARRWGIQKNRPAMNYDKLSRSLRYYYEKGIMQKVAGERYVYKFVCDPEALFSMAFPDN

Etv1 D387A, sequence (P50549 326-429 D387A): as the sequence (P50549 326-429) above, with D62A counted along it
Etv1 Y329S-P427S, sequence (P50549 326-429 Y329S/P427S): as the sequence (P50549 326-429) above, with Y4S, P102S counted along it
Etv1 R391A, sequence (P50549 326-429 R391A): as the sequence (P50549 326-429) above, with R66A counted along it
Etv1 Y396F, sequence (P50549 326-429 Y396F): as the sequence (P50549 326-429) above, with Y71F counted along it
Etv1 R394A, sequence (P50549 326-429 R394A): as the sequence (P50549 326-429) above, with R69A counted along it

B1: Etv1ALF/Etv1ALR EMSA probe (dsDNA)
DNA 1: ATCTCACCGGAAGTGTAGCA
DNA 2: TGCTACACTTCCGGTGAGAT
Etv1 R391A
  Kd: 11.8 ± 1.48 nM
Etv1 Y329S-P427S
  Kd: 0.25 ± 0.026 nM
Etv1 R394A
  Kd: 276 ± 62.7 nM
Etv1 D387A
  Kd: 0.17 ± 0.02 nM
Etv1 Y396F
  Kd: 2640 ± 935 nM
[1]
  Kd: 0.27 ± 0.028 nM

Source: article PMC4447949, “Structures of the Ets Protein DNA-binding Domains of Transcription Factors Etv1, Etv4, Etv5, and Fev” (The Journal of Biological Chemistry, 2015)
